Results on 40 molecules are retold here after article PMC8126837 (Proceedings of the National Academy of Sciences of the …, 2021).

The labels stand for the following.
B1: WNb 33 (VHH)
VHH: QVQLQESGGGLVQPGGSLRLSCAASGFTFSSYLMGWARQVPGKGLEWVAGIYSDGSTYYADSVKGRFIISRDNAKNTVYLQMNSLKPEDTAVYYCAKDRMEGSTWPERDLGSWGQGTQVTVSS
B2: WNb 11 (VHH)
VHH: B1 VHH with P14A, G16D, F27G, L110F
B3: WNb 58 (VHH)
VHH: B1 VHH with L33A, A37F, A49S, I68T, K97A, E101D, T104R, L110F
B4: WNb 22 (VHH)
VHH: B1 VHH with L33A, V48L, A49S, I68T, E101D, T104V, L110F
B5: WNb 13 (VHH)
VHH: B1 VHH with L33A, A37F, A49S, I68T, K97T, E101A, T104R, L110F
B6: WNb 68 (VHH)
VHH: B1 VHH with Y58H, D61N, I68T, E101A, T104R, L110F, S112F
B7: WNb 14 (VHH)
VHH: B1 VHH with L33A, A49S, T104S, L110F
B8: WNb 9 (VHH)
VHH: B1 VHH with L33A, A49S, A60G, I68T, E101A, T104S, L110F
B9: WNb 6 (VHH)
VHH: B1 VHH with L33A, A37F, A49S, I68T, V78L, M100L, T104S, W105R, L110F
B10: WNb 54 (VHH)
VHH: B1 VHH with G26R, L33A, A49S, T104V, L110F
B11: WNb 52 (VHH)
VHH: B1 VHH with T28I, L33A, A49S, I68T, E88K, M100L, L110F
B12: WNb 35 (VHH)
VHH: B1 VHH with L33A, A49S, S56T, I68T, K97A, L110F
B13: WNb 63 (VHH)
VHH: B1 VHH with S30R, S31R, A49S, I68T, K97A, E101D, L110F
B14: WNb 45 (VHH)
VHH: B1 VHH with L33A, A37F, A49S, I68T, K97A, T104S, L110F
B15: WNb 8 (VHH)
VHH: B1 VHH with L33A, A49S, I68T, M100L, G102S, T104S, L110F
B16: WNb 60 (VHH)
VHH: B1 VHH with A37F, I68T, K97T, E101D, T104S, L110F
B17: WNb 59 (VHH)
VHH: QVQLQESGGGLVQPGGSLRLSCAASGGTLDYYAIGWFRQAPGKEREGVSCIMSSGGPTYFAGSVKGRFTISRDNAKNTVYLQMNSLKPEDTAVYYCAADPHGFDCSPSGGMDYWGKGTQVTVSS
B18: WNb 5 (VHH)
VHH: QVQLQESGGGLVQAGGSLRLSCAASGRTFSRYAIGWFRQAPGKEREGVSCISPSGGSTNYADSVKGRFTISRDNAKNTVYLQMNSLKPEDTAVYYCAASTPSYHYCSGYVSEYDYWGQGTQVTVSS
B19: WNb 61 (VHH)
VHH: QVQLQESGGGLVQPGGSLNISCASNGFTLDFYAIGWFRQAPGKEREGVSCISRSGSNINYAESLKGRATISRDNAKNTIYLQMSNLRTEDTAVYYCAATPSGVATAQGPCDLTRWYDNWGQGTQVTVSS
B20: WNb 1 (VHH)
VHH: QVQLQESGGGLVQAGGSLRLSCAASGRTFDRYAMGWFRQVPGKGLEWVSGIYSDGYTYYADSVKGRFTISRDNAKNTVYLQMNSLKPEDTAVYYCAADRMDGSSWPERDFGSWGQGTQVTVSS
B21: WNb 29 (VHH)
VHH: QVQLQESGGGLVQPGGSLRLSCAFSGRTFSMYAMGWFRQAPGKEREFVAVIDDGGGRTYYADSVKGRFTISRDNAKNTVYLQMNSLKTEDTAVYCCAADMGFGYTIWADSYDYWGQGTQVTVSS
B22: WNb 25 (VHH)
VHH: QVQLQESGGGLVQAGGSLRLSCVTSGLTFSRAAMGWFRQAPEKEREFVASIHWRGLNIAYADSVKGRFTISRDDAKNTLYLQMNSLKTEDTAVYYCAAIPFYYFDHISPFSRAAAYWGQGTQVTVSS
B23: WNb 20 (VHH)
VHH: QVQLQESGGGLVQPGGSLRLSCAASGFTLEHYAIGWFRQAPGKEREGVSCISNSGGRTNYADSVKGRFTISRDNAKNTVYLQMNSLKPEDTAVYYCAADLGVVERLCPAHPGSYEYDYWGQGTQVTVSS
B24: WNb 70 (VHH)
VHH: QVQLQESGGGLVQPGGSLNISCASNGFTLDFYAIGWFRQAPGKEREGVSCISSSGGSSKYSDSVKGRFTISRDNAKNTVYLQMNSLQPEDTAVYYCAAQMGSSEYCPIFIPGEGMDYWGKGTQVTVSS
B25: WNb 4 (VHH)
VHH: B24 VHH with N19R, I20L, S24A, N25S, F31Y, S58T, K59N, S61A, E104R, I110T
B26: WNb 3 (VHH)
VHH: B24 VHH with N19R, I20L, S24A, N25S, F31Y, S58T, K59N, S61A, Q87K, E104R
B27: WNb 27 (VHH)
VHH: QVQLQESGGGLVEAGDSLRLSCAASGRTFSRYAMGWFRQAPGKEREFVAAVSWNGGNTYYADSVKGRFTISRDNAKNTLYLQMNSLKPEDTARYYCVADRGESYYYNRDSEYEWWGQGTQVTVSS
B28: WNb 69 (VHH)
VHH: QVQLQESGGGLVQPGGSLRLSCAASGFTLDYYGIGWFRQAPGKEREGVSCISASGTSTKYVNSVKGRFTISRDNAKNTVYLQMNSLKPEDTAVYYCAAISGSYYYTSLHPVEYDSWGQGTQVTVSS
B29: WNb 49 (VHH)
VHH: B28 VHH with C50G, K59N, V61A, N62D, I70V, G101A
B30: WNb 46 (VHH)
VHH: B28 VHH with L11Q, K43Q, C50S, A53T, K59N, V61A, S115Y
B31: WNb 17 (VHH)
VHH: QVQLQESGGGLVQPGGSLRLSCAASGSIFSINVMGWYRQAPGKQRELVAAITSVGSTNYADSVKGRFTISRDNAENTVYLQMNSLKPEDTAVYYCNAVSTFTQAMGGSPEHYWGQGTQVTVSS
B32: WNb 34 (VHH)
VHH: QVQLQESGGGLVEAGDSLRLSCAASGRTFSRYAMGWFRQAPGKEREFVAAVSWNGGNTYYADSVKGRFTISRDNAKNTLYLQMNSLKPEDTAVYYCAAGGEPVVVIKLRNANEYDFLGQGTQVTVSS
B33: WNb 24 (VHH)
VHH: B32 VHH with E13Q, D16E, N112D
B34: WNb 26 (VHH)
VHH: QVQLQESGGGLVQAGGSLRLSCVVSGRTFSPYAMGWFRQAPGKEREFVAGMSWSSGKYYADSVKGRFTISRDGAKNAVYLQMNSLKPEDTAVYYCGAGGEGYSRGRVNLQPDFWGQGTQVTVSS
B35: WNb 62 (VHH)
VHH: QVQLQESGGGLVQAGGSLRLSCTASRRTFSTCVMGWARQVPGKGLEWVSGIYSDGSTYYADSVKGRFTISRDNAKNTVYLQMNSLKPEDTAVYYCNLDGRYENLEDDYWGQGTQVTVSS
B36: WNb 32 (VHH)
VHH: QVQLQESGGGLVQAGGSLGLSCAASGRPLNSYSMAWFRQAPGKEREFVASIGRSDGLSKYNDFVKDRFTLSRGNAKTTLLLQMNNLKVEDTAVYYCSAALWDGWATDINEYDYRGQGTQVTVSS
B37: WNb 31 (VHH)
VHH: QVQLQESGGGLVQAGDSLRLSCTASGRALNTYTVAWWRQAPGNEREFVASIIWSSGAAWYADAVKGRFTISRDNAKNTVDLQMTSLKPEETAIYFCAVGQWEGRDTWYTSYDYWGQGTQVTVSS
B38: WNb 30 (VHH)
VHH: QVQLQESGGGLVQPGGSLRLSCVASGITLDYYAIGWFRQAPGKEREGVSCLSSSDGSTYYADSVKGRFTMSRDNVKNTVYLQMNSLKPEDTAVYYCATNPLTVVDGTFHLTCLDEYDYGGQGTQVTVSS
B39: WNb 67 (VHH)
VHH: QVQLQESGGGLVQPGGSLRLSCAVSGFTLDYYAIGWFRQAPGKEREGVSCISSSGGSTNYADSVKGRFTISRDNATNTVYLQMNSLKPEDTAVYYCAAIAATYYGGSYYYQCPHYGMDYWGKGTQVTVSS
B40: WNb 41 (VHH)
VHH: B39 VHH with T76K, S85G, G105S, Y115D

Residue numbers refer to the chain shown, from its start.

The first test addresses T1, SARS-CoV-2 receptor-binding domain (RBD), wild type (SARS-CoV-2, UniProt P0DTC2, DyLight 488 (NHS ester, about 1.9 dye/protein) in the FRET assay only).
Assay: not given
With B1, the binding result is given as “binds”.
In the case of B2, the binding result is “binds”.
Take B3: the binding result is “binds”.
Same read-out and setting: to B4 belongs “binds”.
Same read-out and setting: to B5 belongs “binds”; to B6, “binds”.
The same measure, in the same setting: to B7 belongs “binds”; to B8, “binds”; to B9, “binds”.
With B10, the binding result is on record as “binds”.
Same read-out and setting: the same measure for B11: “binds”.
Still for that read-out and setting: the same measure for B12: “binds”; for B13: “binds”.
Turning to B14, the binding result is given as “binds”.
Same read-out and setting: to B15 belongs “binds”; to B16, “binds”; to B17, “binds”.
Still for that read-out and setting: to B18 belongs “binds”; to B19, “binds”.
With B20, the binding result is given as “binds”.
Same read-out and setting: the same measure for B21: “binds”.
As to B22, the binding result is recorded as “binds”.
The same measure, in the same setting: the same measure for B23: “binds”; for B24: “binds”; for B25: “binds”.
The same measure, in the same setting: the same measure for B26: “binds”; for B27: “binds”; for B28: “binds”.
Turning to B29, the binding result was “binds”.
As to B30, the binding result is reported as “binds”.
For B31, the binding result is reported as “binds”.
On the same count and under the same terms, the same measure for B32: “binds”; for B33: “binds”; for B34: “binds”.
With B35, the binding result is “binds”.
The same measure, in the same setting: the same measure for B36: “binds”.
The same measure, in the same setting: to B37 belongs “binds”.
As for B38, the binding result is “binds”.

A further test has as its target T1, SARS-CoV-2 receptor-binding domain …. In words: cell-based or functional assay.
As for B39, the other was no more than 80 nM.
On the same count and under the same terms, the same measure for B40: no more than 80 nM.
